As a reminder, the EC90 is the concentration at which the effect reaches the 90% level. A low value points to greater potency. The IC50 is the midpoint of a concentration-inhibition curve.

Read-outs that look alike come from different tables or passages of the source. Bridge positions count the residues as written; N and C are the ends. Square brackets hold non-standard residues; d marks the D form. Ends that are not written are not given here. 1Nal = N[C@@H](Cc1cccc2ccccc12)C(=O)O; Sar = CNCC(=O)O

Assay [1] relates to human, bone marrow derived CD34+ cells. The experiment in a line: C/BFU-e assay (erythroid colonies). In kind it is cell-based. Particulars: 14 days, 90% of maximum colonies relative to EPO control. As to the method: EPO-R signaling stimulates the differentiation of bone marrow stem cells into proliferating red blood cell precursors. This assay measures the ability of test peptides to stimulate the proliferation and differentiation of red blood cell precursors from primary human bone marrow pluripotent stem cells.
For this assay, serial dilutions of test peptide are made in IMDM medium (Gibco) supplemented with 10% FBS (Hyclone). These serial dilutions, or positive control EPO peptide, are then added to methylcellulose to give a final volume of 1.5 mL. The methylcellulose and peptide mixture is then vortexed thoroughly. Aliquots (100,000 cells/mL) of human, bone marrow derived CD34+ cells (Poietics/Cambrex) are thawed. The thawed cells are gently added to 0.1 mL of 1 mg/ml DNAse (Stem Cells) in a 50 mL tube. Next, 40-50 mL IMDM medium is added gently to cells: the medium is added drop by drop along the side of the 50 mL tube for the first 10 mL, and then the remaining volume of medium is slowly dispensed along the side of the tube. The cells are then spun at 900 rpm for 20 min, and the media removed carefully by gentle aspiration. The cells are resuspended in 1 ml of IMDM medium and the cell density per mL is counted on hemacytometer slide (10 μL aliquot of cell suspension on slide, and cell density is the average count×10,000 cells/ml). The cells are then diluted in IMDM medium to a cell density of 15,000 cells/mL. A 100 μL of diluted cells is then added to each 1.5 mL methyl cellulose plus peptide sample (final cell concentration in assay media is 1000 cells/mL), and the mixture is vortexed. Allow the bubbles in the mixture to disappear, and then aspirate 1 mL using blunt-end needle. Add 0.25 mL aspirated mixture from each sample into each of 4 wells of a 24-well plate (Falcon brand). Incubate the plated mixtures at 37° C. under 5% CO2 in a humid incubator for 14 days. Score for the presence of erythroid colonies using a phase microscope (5×-10× objective, final magnification of 100×). The concentration of test peptide at which the number of formed colonies is 90% of maximum, relative to that observed with the EPO positive control, is recorded as the EC90 [See Table 2: C/BFU-e EC90].
For this assay, serial dilutions of test peptide are made in IMDM medium (Gibco) supplemented with 10% FBS (Hyclone). These serial dilutions, or positive control EPO peptide, are then added to methylcellulose to give a final volume of 1.5mL. The methylcellulose and peptide mixture is then vortexed thoroughly. […] The cells are resuspended in 1 ml of IMDM medium and the cell density per mL is counted on hemacytometer slide (10 μL aliquot of cell suspension on slide, and cell density is the average count×10,000 cells/ml). […]

The target of assay [2] is T1, human EPO-R on cells (BaF3/Gal4/Elk/EPOR cells; human bone marrow derived CD34+ cells) (human, UniProt P19235 25-508).
T1 sequence (looked up): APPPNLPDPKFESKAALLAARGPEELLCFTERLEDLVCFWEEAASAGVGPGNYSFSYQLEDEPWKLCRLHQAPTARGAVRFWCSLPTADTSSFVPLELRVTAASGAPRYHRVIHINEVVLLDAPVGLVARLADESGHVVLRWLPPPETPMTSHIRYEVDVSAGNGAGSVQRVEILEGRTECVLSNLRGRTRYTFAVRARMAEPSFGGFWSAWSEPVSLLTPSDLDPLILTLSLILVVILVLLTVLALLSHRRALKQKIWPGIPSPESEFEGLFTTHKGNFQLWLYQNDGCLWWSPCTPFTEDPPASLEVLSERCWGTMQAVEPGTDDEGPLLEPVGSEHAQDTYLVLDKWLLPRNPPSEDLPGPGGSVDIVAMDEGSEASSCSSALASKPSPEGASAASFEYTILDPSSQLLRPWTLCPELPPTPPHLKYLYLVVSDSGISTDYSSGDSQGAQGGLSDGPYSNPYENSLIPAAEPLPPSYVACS
The assay is described as follows: cell-based or functional assay.

Assay [3] addresses T2, chimeric receptor comprising the extra-cellular portion of the human EPO receptor to the intra-cellular … (human, UniProt P19235 25-250; Q99062 651-836, limits assumed).
T2 sequence (looked up): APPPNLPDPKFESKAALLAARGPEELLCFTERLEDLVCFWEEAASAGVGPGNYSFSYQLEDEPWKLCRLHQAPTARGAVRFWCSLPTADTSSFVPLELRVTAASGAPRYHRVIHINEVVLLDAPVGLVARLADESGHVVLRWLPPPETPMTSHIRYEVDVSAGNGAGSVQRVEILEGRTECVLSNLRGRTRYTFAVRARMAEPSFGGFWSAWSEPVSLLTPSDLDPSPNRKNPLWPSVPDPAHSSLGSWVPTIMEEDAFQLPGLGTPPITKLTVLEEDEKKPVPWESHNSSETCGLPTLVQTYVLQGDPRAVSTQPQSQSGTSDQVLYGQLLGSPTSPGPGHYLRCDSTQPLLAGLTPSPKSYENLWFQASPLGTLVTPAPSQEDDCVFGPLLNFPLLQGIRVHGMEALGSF
The assay is described as follows: cell-based or functional assay.

Assay [4] addresses T3, recombinant EPO-R produced in Chinese Hamster Ovary cells as a fusion protein to a portion of the human … (human, UniProt P19235 25-250).
T3 construct: In the assay it was held on protein A acceptor beads through antibody ab179
T3 sequence (looked up): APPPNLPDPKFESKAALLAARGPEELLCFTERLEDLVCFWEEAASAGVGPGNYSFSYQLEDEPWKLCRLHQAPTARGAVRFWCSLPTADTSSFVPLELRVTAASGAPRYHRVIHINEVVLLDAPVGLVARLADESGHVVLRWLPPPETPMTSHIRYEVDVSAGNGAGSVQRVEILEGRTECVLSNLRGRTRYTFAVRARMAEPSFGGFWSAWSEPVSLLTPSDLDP
The experiment in a line: competitive binding; the column head says only 'IC50 (pM)', the text ties Table 2 to the AQ bead proximity assay with tracer SEQ ID NO: 4 as competitor.

Assay [5] addresses T1, human EPO-R on cells …. The experiment in a line: cell-based or functional assay. This is another data set of the same source.
For assay [6], the target named is T2, chimeric receptor comprising the …. The experiment in a line: cell-based or functional assay. The source holds these as a separate data set.
Assay [7] deals with T4, Recombinant Human EPO R/Fc Chimera (R&D Systems, catalog number 963-ER) (human, UniProt P19235 25-250).
T4 construct: extracellular domain; Bought reagent; also called recombinant EPOr extracellular domain fused to the Fc portion of human IgG1; recombinant erythropoietin receptor; not shown: Fc portion of human IgG1
T4 sequence (looked up): T3 sequence (looked up)
The experiment in a line: radioligand competition: displacement of 125I-EPO from recombinant human EPO R/Fc, Protein-G Sepharose pull-down. A general note: In a radioligand displacement assay an active substance lowers the binding of a labelled ligand.

In turn, “PEGylated peptide dimer of (AcG)GLYACHMGPIT(1-nal)VCQPLR(MeG) (SEQ ID NO: 3), EPO-R agonist [Peptide III] (Ac-GGLYACHMGPIT[1Nal]VCQPLR[Sar]; disulfide 6-15 (inferred); also: homodimer, C-termini joined to a lysine linker, PEGylated)” showed an EC90 in assay [1] of 2.7 nM.

As for “PEGylated peptide dimer of (AcG)GLYACHMGPIT(1-nal)VCQPLR(MeG) (SEQ ID NO: 3), EPO-R agonist [Peptide II] (Ac-GGLYACHMGPIT[1Nal]VCQPLR[Sar]; disulfide 6-15 (inferred); also: homodimer, C-termini joined to a lysine linker, PEGylated)”, the EC90 in assay [1] was found to be 2.2 nM.

As for “Peptide IV: PEGylated peptide dimer of (AcG)GLYACHMGPIT(1-nal)VCQPLRK (SEQ ID NO: 1), EPO-R agonist (Ac-GGLYACHMGPIT[1Nal]VCQPLRK; disulfide 6-15 (inferred); also: PEGylated peptide dimer)”, in assay [1], it took 6.2 nM to reach the 90% level (EC90).

B1: Peptide III (SEQ ID NO: 3) (peptide)
peptide: Ac-GGLYACHMGPIT[1Nal]VCQPLR[Sar]
modifications: disulfide 6-15 (inferred); also: C-termini joined to α- and ε-amines of a Lys linker carrying spacer and PEG
As for B1, the “Proliferation EC50” value in assay [2] was 72 nM. Also, the “Reporter EC50 (pM)” value in assay [3] is 150 pM.

B2: Peptide II (SEQ ID NO: 3) (peptide)
peptide: Ac-GGLYACHMGPIT[1Nal]VCQPLR[Sar]
modifications: disulfide 6-15 (inferred); also: C-termini joined to α- and ε-amines of a Lys linker carrying spacer and PEG
In the case of B2, the IC50 in assay [4] was 0.11 nM.

B3: Peptide I (SEQ ID NO: 2) (peptide)
peptide: Ac-GGLYACHMGPIT[1Nal]VCQPLR[Sar]K
modifications: disulfide 6-15 (inferred); also: K21 ε-amine joined to branched tertiary amide linker bearing PEG
Turning to B3, the “Proliferation EC50 (pM)” value in assay [5] is 165 pM. The “Reporter EC50 (pM)” value in assay [6] stood at 195 pM. Further, the IC50 in assay [7] was determined as 0.111 nM.

(Values after US20090209457A1, “TREATMENT OF ANTI-ERYTHROPOIETIN ANTIBODY-MEDIATED DISORDERS WITH SYNTHETIC PEPTIDE-BASED EPO RECEPTOR AGONISTS” (Affymax, Inc., priority 2008, published 2009).)
